This is an account of results in publication PMC5473844, “Structural and Biochemical Characterization of Poly-ADP-ribose Polymerase from Trypanosoma brucei”.

One data set deals with T1, TBP-NW (Trypanosoma brucei, UniProt Q0PW89 1-197).
T1 sequence: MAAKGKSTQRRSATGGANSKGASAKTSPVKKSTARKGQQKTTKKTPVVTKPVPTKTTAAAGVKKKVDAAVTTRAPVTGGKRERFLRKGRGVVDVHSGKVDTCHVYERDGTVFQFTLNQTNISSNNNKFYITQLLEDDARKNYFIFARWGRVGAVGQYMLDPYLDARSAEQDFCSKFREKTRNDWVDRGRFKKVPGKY
Nature of the data set: EMSA; FP: 10 mM HEPES pH 8, 0.1 mM TCEP, 0.1 mM EDTA, 175 mM NaCl, 25 C, 5 nM DNA (250 nM for stoichiometry); EMSA: 50 mM Tris pH 7, 0.1 mM TCEP, 0.1 mM EDTA, 5% glycerol, 100 mM NaCl, room temperature, 0.5 uM DNA. To be noted: protein: recombinant; tags: 6xHis-thioredoxin tag removed with TEV; blunt. (Mobility shift assays separate free from complexed probe on a gel.)

The target in a further data set is T2, TBP-N (Trypanosoma brucei, UniProt Q0PW89 1-100).
T2 sequence: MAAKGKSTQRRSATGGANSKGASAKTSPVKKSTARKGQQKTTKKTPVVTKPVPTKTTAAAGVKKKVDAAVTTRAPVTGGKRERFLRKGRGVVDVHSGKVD
The description is as above. To be noted: protein: recombinant; tags: 6xHis tag removed with TEV; blunt.

Data set [1] has as its target T3, TBP-FL (TbPARP full-length) (Trypanosoma brucei, UniProt Q0PW89 1-573).
T3 sequence: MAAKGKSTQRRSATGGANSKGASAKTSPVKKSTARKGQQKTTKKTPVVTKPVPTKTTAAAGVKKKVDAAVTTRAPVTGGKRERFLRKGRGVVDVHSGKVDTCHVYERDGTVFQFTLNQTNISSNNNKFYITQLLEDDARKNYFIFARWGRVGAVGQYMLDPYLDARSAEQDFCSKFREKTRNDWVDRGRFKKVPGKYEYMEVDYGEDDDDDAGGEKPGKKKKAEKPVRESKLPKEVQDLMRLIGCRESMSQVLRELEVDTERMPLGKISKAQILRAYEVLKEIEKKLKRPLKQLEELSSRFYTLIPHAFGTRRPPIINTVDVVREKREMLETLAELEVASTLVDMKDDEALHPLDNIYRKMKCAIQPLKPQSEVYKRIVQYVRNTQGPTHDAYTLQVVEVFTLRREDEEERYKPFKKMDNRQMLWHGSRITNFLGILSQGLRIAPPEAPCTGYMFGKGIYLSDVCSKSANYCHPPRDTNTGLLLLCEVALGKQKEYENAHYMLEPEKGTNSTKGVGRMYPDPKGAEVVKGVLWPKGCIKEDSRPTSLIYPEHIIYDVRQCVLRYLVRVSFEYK
The data set is described as above. The following applies: protein: recombinant; tags: 6xHis-thioredoxin tag removed with TEV; blunt.

The target of data set [2] is T3, TBP-FL (TbPARP full-length). Kind of data set: fluorescence polarization (stoichiometry); 50 mM NaCl; non-specific, no clear inflection; FP: 10 mM HEPES pH 8, 0.1 mM TCEP, 0.1 mM EDTA, 175 mM NaCl, 25 C, 5 nM DNA (250 nM for stoichiometry); EMSA: 50 mM Tris pH 7, 0.1 mM TCEP, 0.1 mM EDTA, 5% glycerol, 100 mM NaCl, room temperature, 0.5 uM DNA. The following applies: protein: recombinant; tags: 6xHis-thioredoxin tag removed with TEV; label: 5' FAM on strand 1; blunt. For orientation: Fluorescence polarisation rises when a labelled molecule tumbles more slowly, as on binding a larger partner.

Data set [3] shares this target. Kind of data set: fluorescence polarization; low nanomolar affinity (value only in figure); 1:1; FP: 10 mM HEPES pH 8, 0.1 mM TCEP, 0.1 mM EDTA, 175 mM NaCl, 25 C, 5 nM DNA (250 nM for stoichiometry); EMSA: 50 mM Tris pH 7, 0.1 mM TCEP, 0.1 mM EDTA, 5% glycerol, 100 mM NaCl, room temperature, 0.5 uM DNA. The following applies: protein: recombinant; tags: 6xHis-thioredoxin tag removed with TEV; label: 5' FAM; single strand.

Data set [4] has the same target. Kind of data set: SEC-SAXS; 1:1 complex, non-activating DNA; FP: 10 mM HEPES pH 8, 0.1 mM TCEP, 0.1 mM EDTA, 175 mM NaCl, 25 C, 5 nM DNA (250 nM for stoichiometry); EMSA: 50 mM Tris pH 7, 0.1 mM TCEP, 0.1 mM EDTA, 5% glycerol, 100 mM NaCl, room temperature, 0.5 uM DNA. The following applies: protein: recombinant; tags: 6xHis-thioredoxin tag removed with TEV; hairpin, 28 bp stem, TTTT loop, 3' overhang 4 nt. On the technique in general: SEC sorts molecules by how far they enter the pores of the column.

For data set [5] the target is unchanged. Nature of the data set: SEC-SAXS; 2:1 protein:DNA complex, activating DNA; FP: 10 mM HEPES pH 8, 0.1 mM TCEP, 0.1 mM EDTA, 175 mM NaCl, 25 C, 5 nM DNA (250 nM for stoichiometry); EMSA: 50 mM Tris pH 7, 0.1 mM TCEP, 0.1 mM EDTA, 5% glycerol, 100 mM NaCl, room temperature, 0.5 uM DNA. To be noted: protein: recombinant; tags: 6xHis-thioredoxin tag removed with TEV; hairpin, 28 bp stem, TTTT loop, 3' overhang 4 nt.

For data set [6] the target is unchanged. Nature of the data set: EMSA; higher protein needed for full supershift; FP: 10 mM HEPES pH 8, 0.1 mM TCEP, 0.1 mM EDTA, 175 mM NaCl, 25 C, 5 nM DNA (250 nM for stoichiometry); EMSA: 50 mM Tris pH 7, 0.1 mM TCEP, 0.1 mM EDTA, 5% glycerol, 100 mM NaCl, room temperature, 0.5 uM DNA. To be noted: protein: recombinant; tags: 6xHis-thioredoxin tag removed with TEV; 3' overhang 4 nt (TCGA) on strand 1, other end blunt.

B1: template 1 (dsDNA)
DNA 1: CCAGGACCAGGGCGCAGATCACCTTGTTCTCCA
DNA 2: TGGAGAACAAGGTGATCTGCGCCCTGGTCCTGG
Turning to B1, the binding result (with TBP-NW; with TBP-N; in data set [1]) was “binds” each time.

B2: template 20 (dsDNA)
DNA 1: CAGCAGGTACCTGCCCGGCGCCCAGAGAGGAATGCAACACTC
DNA 2: GAGTGTTGCATTCCTCTCTGGGCGCCGGGCAGGTACCTGCTG
Regarding B2, in data set [2], the binding result is “binds”.

B3: template 21 (ssDNA)
DNA: CAGCAGGTACCTGCCCGGCGCCCAGAGAGGAATGCAACACTC
On to B3, for which, in data set [3], the binding result is listed as “binds”.

B4: template 14 (structured_DNA)
DNA: GCTCTAGTGTAGCATGAGCCTTAGCGCGTTTTCGCGCTAAGGCTCATGCTACACTAGAGCTCGA
With B4, in data set [4], the binding result was “binds”.

B5: template 15 (structured_DNA)
DNA: GCTCTAGTGTAGCATGAGCCTTAGCGCGTTTTCGCGCTAAGGCTCATGCTACACTAGAGCTCGA
modifications: 5' phosphate
B5: the binding result in data set [5] is recorded as “binds”.

B6: template 6 (dsDNA)
DNA 1: CGCGCTAAGGCTCATGCTACACTAGAGCTCGA
DNA 2: GCTCTAGTGTAGCATGAGCCTTAGCGCG
modifications: 5' phosphate on strand 2
For the molecule B6, the binding result in data set [6] is given as “binds”.
